# Where two headings read alike, the source gives them in different places.
# Key:
# Assay in all cases: cell-based or functional assay
# [1] = target: T1, recombinant human TFPI (tissue factor pathway inhibitor) (human, UniProt P10646 29-304)
# [2] = target: T1, recombinant human TFPI (tissue factor …); remark: listed apart in the source
# [3] = target: T1, recombinant human TFPI (tissue factor …); remark: listed apart in the source
# [4] = target: T1, recombinant human TFPI (tissue factor …); remark: listed apart in the source
# [5] = target: T1, recombinant human TFPI (tissue factor …); remark: listed apart in the source
# [6] = target: T1, recombinant human TFPI (tissue factor …); remark: listed apart in the source
# [7] = target: T1, recombinant human TFPI (tissue factor …); remark: listed apart in the source
# [8] = target: T1, recombinant human TFPI (tissue factor …); remark: listed apart in the source
# [9] = target: T1, recombinant human TFPI (tissue factor …); remark: listed apart in the source
# [10] = target: T1, recombinant human TFPI (tissue factor …); remark: listed apart in the source
binder,measurement,setting,value
"clone 1023 (antibody, V domains shown, scFv on yeast at selection; human IgG4/kappa IgG as purified) VH: EVQLVESGGGLVKPGGSLRLSCAASGFTFSSYAMNWVRQAPGKGLEWVGTITTGGSYTYYADSVDGRFTISRDNAKNSLYLQMNSLRAEDTAVYYCARQDGNFLMDYWGQGTLVTVSS VL: DVVMTQTPLSLPVTLGQPASISCKSSQSLLDIDGKTYLNWLQQRPGQSPKRLIYLVSKLDSGVPDRFTGSGSGTDFTLKISRVEAEDVGVYYCWQGTHFPFTFGQGTKVEIKR","A405, TF/FVIIa/FX complex assay, Ab 50 nM",[1],0.905
same,"A405, TF/FVIIa/FX complex assay, Ab 100 nM",[1],0.935
same,"% of Normalized, TF/FVIIa/FX complex assay, Ab 1.56 nM",[2],4.8%
same,"% of Normalized, TF/FVIIa/FX complex assay, Ab 3.13 nM",[2],6%
same,"% of Normalized, TF/FVIIa/FX complex assay, Ab 6.25 nM",[2],8.3%
same,"% of Normalized, TF/FVIIa/FX complex assay, Ab 12.5 nM",[2],10.3%
same,"% of Normalized, TF/FVIIa/FX complex assay, Ab 25 nM",[2],43.7%
same,"% of Normalized, TF/FVIIa/FX complex assay, Ab 50 nM",[2],80.3%
same,"% of Normalized, TF/FVIIa/FX complex assay, Ab 100 nM",[2],99.8%
same,"% of Normalized, TF/FVIIa/FX complex assay (FX 5 nM), Ab 1.56 nM",[3],6.2%
same,"% of Normalized, TF/FVIIa/FX complex assay (FX 5 nM), Ab 3.13 nM",[3],5.9%
same,"% of Normalized, TF/FVIIa/FX complex assay (FX 5 nM), Ab 6.25 nM",[3],6.9%
same,"% of Normalized, TF/FVIIa/FX complex assay (FX 5 nM), Ab 12.5 nM",[3],9.7%
same,"% of Normalized, TF/FVIIa/FX complex assay (FX 5 nM), Ab 25 nM",[3],26.6%
same,"% of Normalized, TF/FVIIa/FX complex assay (FX 5 nM), Ab 50 nM",[3],80.5%
same,"% of Normalized, TF/FVIIa/FX complex assay (FX 5 nM), Ab 100 nM",[3],100%
same,"FXa assay % of FXa alone, 2.5 nM Ab, 10 nM TFPI",[4],8.9%
same,"FXa assay % of FXa alone, 5 nM Ab, 10 nM TFPI",[4],63.1%
same,"FXa assay % of FXa alone, 10 nM Ab, 10 nM TFPI",[4],85.3%
same,"FXa assay % of FXa alone, 20 nM Ab, 10 nM TFPI",[4],88.5%
same,"FXa assay OD, 2.5 nM Ab, 10 nM TFPI",[4],0.0715
same,"FXa assay OD, 5 nM Ab, 10 nM TFPI",[4],0.509
same,"FXa assay OD, 10 nM Ab, 10 nM TFPI",[4],0.688
same,"FXa assay OD, 20 nM Ab, 10 nM TFPI",[4],0.714
same,"FXa assay % of FXa alone, 2.5 nM Ab, 10 nM TFPI",[5],5.2%
same,"FXa assay % of FXa alone, 5 nM Ab, 10 nM TFPI",[5],8%
same,"FXa assay % of FXa alone, 10 nM Ab, 10 nM TFPI",[5],52.7%
same,"FXa assay % of FXa alone, 20 nM Ab, 10 nM TFPI",[5],78.4%
same,"FXa assay OD, 2.5 nM Ab, 10 nM TFPI",[5],0.045
same,"FXa assay OD, 5 nM Ab, 10 nM TFPI",[5],0.0695
same,"FXa assay OD, 10 nM Ab, 10 nM TFPI",[5],0.459
same,"FXa assay OD, 20 nM Ab, 10 nM TFPI",[5],0.682
same,"FXa assay % of FXa alone, 2.5 nM Ab, 10 nM TFPI",[6],8.1%
same,"FXa assay % of FXa alone, 5 nM Ab, 10 nM TFPI",[6],16.2%
same,"FXa assay % of FXa alone, 10 nM Ab, 10 nM TFPI",[6],80.9%
same,"FXa assay % of FXa alone, 20 nM Ab, 10 nM TFPI",[6],92.8%
same,"FXa assay OD, 2.5 nM Ab, 10 nM TFPI",[6],0.096
same,"FXa assay OD, 5 nM Ab, 10 nM TFPI",[6],0.193
same,"FXa assay OD, 10 nM Ab, 10 nM TFPI",[6],0.963
same,"FXa assay OD, 20 nM Ab, 10 nM TFPI",[6],1.1
same,"% of Normalized, TF/FVIIa/FX complex assay, Ab 1.56 nM",[7],14.7%
same,"% of Normalized, TF/FVIIa/FX complex assay, Ab 3.13 nM",[7],17.5%
same,"% of Normalized, TF/FVIIa/FX complex assay, Ab 6.25 nM",[7],20.2%
same,"% of Normalized, TF/FVIIa/FX complex assay, Ab 12.5 nM",[7],31.6%
same,"% of Normalized, TF/FVIIa/FX complex assay, Ab 25 nM",[7],99.8%
same,"% of Normalized, TF/FVIIa/FX complex assay, Ab 50 nM",[7],102%
same,"% of Normalized, TF/FVIIa/FX complex assay, Ab 100 nM",[7],103%
same,"A405, TF/FVIIa/FX complex assay, Ab 1.56 nM",[8],0.135
same,"A405, TF/FVIIa/FX complex assay, Ab 3.13 nM",[8],0.16
same,"A405, TF/FVIIa/FX complex assay, Ab 6.25 nM",[8],0.185
same,"A405, TF/FVIIa/FX complex assay, Ab 12.5 nM",[8],0.29
same,"A405, TF/FVIIa/FX complex assay, Ab 25 nM",[8],0.914
same,"A405, TF/FVIIa/FX complex assay, Ab 50 nM",[8],0.938
same,"A405, TF/FVIIa/FX complex assay, Ab 100 nM",[8],0.939
same,"% of Normalized, TF/FVIIa/FX complex assay, Ab 1.56 nM",[9],15.6%
same,"% of Normalized, TF/FVIIa/FX complex assay, Ab 3.13 nM",[9],16.5%
same,"% of Normalized, TF/FVIIa/FX complex assay, Ab 6.25 nM",[9],18.2%
same,"% of Normalized, TF/FVIIa/FX complex assay, Ab 12.5 nM",[9],24.8%
same,"% of Normalized, TF/FVIIa/FX complex assay, Ab 25 nM",[9],86.5%
same,"% of Normalized, TF/FVIIa/FX complex assay, Ab 50 nM",[9],103%
same,"% of Normalized, TF/FVIIa/FX complex assay, Ab 100 nM",[9],104%
same,"A405, TF/FVIIa/FX complex assay (FX 5 nM), Ab 1.56 nM",[10],0.05
same,"A405, TF/FVIIa/FX complex assay (FX 5 nM), Ab 3.13 nM",[10],0.048
same,"A405, TF/FVIIa/FX complex assay (FX 5 nM), Ab 6.25 nM",[10],0.056
same,"A405, TF/FVIIa/FX complex assay (FX 5 nM), Ab 12.5 nM",[10],0.079
same,"A405, TF/FVIIa/FX complex assay (FX 5 nM), Ab 25 nM",[10],0.216
same,"A405, TF/FVIIa/FX complex assay (FX 5 nM), Ab 50 nM",[10],0.652
same,"A405, TF/FVIIa/FX complex assay (FX 5 nM), Ab 100 nM",[10],0.81
